In a protein production outcome set (Wang et al. 2014):

Test: label from the status in PepcDB records

Sequence	protein production
MANDPRHLPSRKLLVTCALPYANGSIHLGHMLEHIQADIWVRYQRLRGNTVNFICADDAHGTPIMLKAQQMGITPEEMIAAVSEEHQKDFAGFDISFDNYHSTHSEENRELASHIYLELKKNGFISSRTISQLFDPEKEMFLPDRFVKGTCPKCKSEDQYGDNCDNCGETYSPTELINPKSAVSGATPVMKDSEHFFFDLPQFESMLKEWTRSGSLQSETANKMQEWFESGLQQWDISRDAPYFGFEIPGEKDKFFYVWLDAPIGYMGSFKNLCNKRDDLDFDEYWNKDSKTELYHFIGKDIVYFHSLFWPAMLEGSGFRKPNNVFVHGYVTVNGAKMSKSKGTFVKASTYLDHLDPECLRYYYAAKLNSRIDDLDLNLEDFTQRVNADVVNKIVNLASRNAGFIAKRFEGKLSDNFAEPELYNEFVAAADRIAELFEAREFGRAIREITALADKANQYVDEKAPWVVAKEEGKDQELQEICSVGINLFRVLMTYLKPVMPALAARTEAFLNQELTWEGIAQPLTGHEITKFKALFNRIDPKNIEAMIEASKEDAAAEMAAKEKAEAAKTETELSKDPIADEIEFDTFAQVDLRIARIISCEEVPKANKLLKFQLDIGGETRQVFSGIKSAYKPEELEGKLTVMVANLKPRKMKFGMSEGMILAAGPGGSDLWILEPHEGAQPGMRVM	failed
MANIEIRQETPTAFYIKVHDTDNVAIIVNDNGLKAGTRFPDGLELIEHIPQGHKVALLDIPANGEIIRYGEVIGYAVRAIPRGSWIDESMVVLPEA	not failed
MANIKIRQETPTAFYIKVHDTDNVAIIVNDNGLKAGTRFPDGLELIEHIPQGHKVALLDIPANGEIIRYGEVIGYAVRAIPRGSWIDESMVVLPEA	not failed
MANKEKLPWDLEEEILSRVPPTSLDRFKTVCKRWNALFNDKTFINNHKMTFQFVLSTRSKIYSVSVNPKVEVRELTLNNPGLKAQRHKNLFATSGLLLCDVGNGAVVWNPWLKQSRCIKLEVNEPSLDFLGIGYDNNKRVEEIVYKTLSVYMKDLGSQYTWKIHDFASDTWIDQEIEKTKYSRRITEGSVTIRLTNLSVVSLNGKFFKFCDLPSGKNRRRDALALRVFREDRFSLLRQCHVTKKIKIWVTKNKIDNRYGGDVKWMSFMEVSIPTMPDLEHPKFNSQPSYFIDDKRLVICSCDETGRAWIYVVGGNKLVSKTQLDSVVDPWPLHCTYFPSLVLVPGGQREEAELQEAKNLHVTTELYVPGKTKSSIKLHYG	failed
MANKENTSDEGLRVSYDVKTYHEQKYIDYTLRLREILKTLPSFAKDYFRAIEPTTSANTRISYAYDIRVFFRFLMENNPVYKNYTIDQFTLADIENLEPVDIEEYQEYLKVYKNDEKQVTNTEKGLARKMSALRSFYGYYFKRQAISKNPTLLVDMPKLHEKAIIRLDADEVVRLLDYVDHGGDHLTGQKKAYFEKTRNRDLAILTLLLGTGIRVSECVGLDINDVDFENNGIKVMRKGGNEMIVYFGEEVENALKTYMYTTRRTTLPLPGHENALFLSTQRKRMGVQAIENMVKKYAREVTPNKKITPHKLRSTYGTSLYKETGDIYLVADVLGHKDVNTTKKHYAAIDEDRRRQAANIVKLREV	failed
MANNTTGFTRIIKAAGYSWKGLRAAWINEAAFRQEGVAVLLAVVIACWLDVDAITRVLLISSVMLVMIVEILNSAIEAVVDRIGSEYHELSGRAKDMGSAAVLIAIIVAVITWCILLWSHFG	failed
MANRLRTGIDVLDRKLDGGIPAGSIVVLSAQPASQAELFLYELTATRGTLWLSLDRTAESVIASIEQTPANTGDPTVRHISGEAPLDNAGKLVSALPETSNLIVDPLDVLEAQEPHSRFRAFMNDLQNHIVNTGSLAIVHCLDGRDVPPLRDTTEHFADVVFQLNTTTNGDEVENRLAIPKFRGGRAPTDIIKLNLVEEVSIDTSRDIALEHHHHHH	failed
MANSASPEQNQNHCSAINNSIPLMQGNLPTLTLSGKIRVTVTFFLFLLSATFNASFLLKLQKWTQKKEKGKKLSRMKLLLKHLTLANLLETLIVMPLDGMWNITVQWYAGELLCKVLSYLKLFSMYAPAFMMVVISLDRSLAITRPLALKSNSKVGQSMVGLAWILSSVFAGPQLYIFRMIHLADSSGQTKVFSQCVTHCSFSQWWHQAFYNFFTFSCLFIIPLFIMLICNAKIIFTLTRVLHQDPHELQLNQSKNNIPRARLKTLKMTVAFATSFTVCWTPYYVLGIWYWFDPEMLNRLSDPVNHFFFLFAFLNPCFDPLIYGYFSL	not failed
MANVLVINFPGEGHINPTLAIISELIRRGETVVSYCIEDYRKKIEATGAEFREFENFLSQINIMERVNEGGSPLTMLSHMIEASERIVTQIVEETKGEQYDYLLYDNHFPVGRIIANVLQLPSISSCTTFAFNQYITFNDEQESRQVDETNPLYQSCLAGMEKWNRQYGMKCNSMYDIMNHPGDITIVYTSKEYQPRSDVFDESYKFVGPSIATRKEVGSFPMEDLKGEKLIFISMGTVFNEQPELYEKCFEAFKGVEATVILAVGKKINISQFENIPNNFKLYNYVPQLEVLQHADVFVTHGGMNSSSEALYYGVPLVVIPVTGDQPLVAKRVNEVGAGIRLNRKELTSELLRETVKEVMYDVTFKENSRKVGESLRNAGGYKRAVDEIFKMKMNSYLKLK	failed
MANVSMEAKGLLILGFPIAATMIAQTLMSLTDLMLVSRLGEKQVAGVSLGIAVYSFGMLFGLGVITAVTPMIAKAYGRKDFNAVSNYTRQGLWVAALVAMPGVIALILTRSILLFLNVEAETANIASDYCVGALMGLPAFLIYVNLRCFLSAIGRPKTTTWIMFLAVPVNYIIGHVLIFGVMDAEGLGITGAGLASSVTRLAILSTVIATLKYGADFKCFSLFENVMNVKPVVVKKIVLLGLPVGVRILLAEGMLPIIALLISTLGTIDLVAHMVAVRLSGVSAVIALGFSSAASTRVAWQVAANNQNGVRVTGYVASALAFGVSALLAMLLIFFPTELVMLLFDIDDAEVLALTSHLLKVVAAYQILNAIQTAVVGSLLGVSDTKIPTCLVLIGNWLVGLASAYGLVVLFEATVTAVWGGLVLGQVFVVVTCLCRFHMKTKALHE	failed
MAPARLRADTGSGEPIIHSTLLYILLAATISGVGSIFGAALLSLTVASRVVERMVSFSVGVLLATALLHSLPEAFESGADTRALFGTLLAGLLGFFLLEKISLLRHSHHHEGDGHHHHHGHDREEAGRSGLTILVGDTFHNFADGIVIAAAFLANPHIGIVTALAIAAHEIPQEVGDFIVLLNAGFSKARAFAFNLLSSLAAIIGGLVGYFLLDQLTGWIPYVLVIASSSFLYIAVSDLMPQMQRKPRLKESAVQVVLVAAGIAAIVFITNGVHEQHGHRHSRTAAGVTSN	failed
MAPEPLSAAGQNLIDTATSVINGIPVSDFYSVASAAISDDGRVFSGVNVYHFNGGPCAELVVLGVAAAAGATKLTHIVAIANEGRGILSPCGRCRQVLADLHPGIKAIVIGKEGPKMVAVEELLPSIYAWDKDYDRI	not failed
MAPIFLEYKVVHDNITYYIIYVFIYNLSLKLVTMYTINPSSHTILNYNVSLEPEQIFSNITGVSTYYSLDGKKILAYEDNNGSIIVAYNGLILKKASNNSVRYLIAANYPGIDNSKFPSLYKLAEISIFDSNIRVLVLGVLLTILSSFILKVMVGRYDKVR	failed
MAPKPVAVDAGHYRGTWLEIGRMPMLLTDGCVAGYSTYRQGKSADEVLVEDGCREGTPQGKLKTINGVGKIEDFASTKAKMRVRYPLLITFNYWVLYKSPDKSWFISANPSTEDVWVYARSVPSKAKLNRMMMKVRELGYDVKKLEFPLEHHHHHH	not failed
MAPLQTPLCSEIGIDHPVVQAPVGSVSTPSLAAAVADAGGLGMLAMSWREADAIRDAYTDAANATDGVVGVNVVLDESTGVLSPSACLDACLDAGAPVVSFSFGDAGPYIDRVHEVGGTVMVTVASAAEARAAVDAGADVVVAQGREAGGHVQSDVTTMSLLPRVADGVPVPVVAAGGLGDGRGLAAALTLDADGGWFGTRFVATEESGAHEAYRQQIVDAPETATRFTDLFDRGWPDQPHRVLETDEVRQQAGADSGGESDGSDPEQIAQMPDGEPISRFADMPPLAGMTGDVEALPHYAGQSTGLAQDVRPAGEVVARLVSDARAALADASAAAE	failed
MAPPTPHLAVRGSDGTLLLHGPPNCQESSAFQRDDRQGRYMTFSNDGTLFAWCNGSQVTVLKVPSGDLVKSFDLPKTTALEFSPLNKVLATWQQYTKTQDNPQGEANLQLWDLQTGACMKAFYQKKMTGWCPSWADDESISVRNVNNELHFFENNNFETIANKLHLQKVSEFALSPGSQPSKVAVYVPGSKGAPSFVRLYQYPNFGGPTCALANKSFFKADKVNMLWNKKATAVLVTASTEVDKTGASYYGEQTLHYVATNGESAVVQLPKNGPIYDVSWSPNSTEFCVVYGFMPAKATVFNNKCESVFDFGTGPRNAAFYSPQGHILVLAGFGNLRGQMEVWDVKKYKQVSKPQAEDTTHFSWCPDGEHIVTATCSPRLRASNGYKIWHYTGTVLYKHETPSGKELWEVLWQPFPAGVFPERAVKYQALPSELGSTEAKPAQAYRPPALRNKPQTASSKLHEEEPPQNMKPGAAGEKQPSKAALKNQKRREAKKAAKQENKPDEAPPPAADPAPVSHVTSSCGDPETDKKIKNLKKKLKAIDELKEQQAAGKVMQKNQLEKMQKEAQLLKELEDLELGL	not failed
MAPQPVIRSKQAEKTINGNQTQVVCTEFSNYIFIVLTQYGKIGTLVSITPDTRSGDISVPMYTSKVLLGKDEPLTHVYAKNVATFVSQESGNRPILLGLSLKDNSAETMKTVKDMIKSCQVW	failed
MAPRQLAAADLAVGQVVAQREIRLDAQAFAQFAALTGDAHPIHYDAGYVQRQGLRAPIAHGLLLVAISALGATPLSAQLHDAMVAMVGVEAVFMRPVYVDETVQCVYRVAQIEHVAKGRSKTTIAVSIHTTDAPPDAARQAHCVVHLTFLLKTHLQGLEHHHHHH	failed
MAQFYSAKRRTTTRQIITVSVNDLDSFGQGVARHNGKTLFIPGLLPQENAEVTVTEDKKQYARAKVVRRLSDSPERETPRCPHFGVCGGCQQQHASVDLQQRSKSAALARLMKHEVSEVIADVPWGYRRRARLSLNYLPKTQQLQMGFRKAGSSDIVDVKQCPILVPQLEALLPKVRACLGSLQAMRHLGHVELVQATSGTLMILRHTAPLSSADREKLECFSHSEGLDLYLAPDSEILETVSGEMPWYDSNGLRLTFSPRDFIQVNAGVNQKMVARALEWLDVEPEDRVLDLFCGMGNFTLPLATQAASVVGVEGVPALVEKGQQNARLNGLQNVTFYHENLEEDVTKQPWAKNGFDKVLLDPARAGAAGVMQQIIKLEPIRIVYVSCNPATLARDSEALLKAGYTIARLAMLDMFPHTGHLESMVLFSRVK	not failed
MAQHTVYFPDAFLTQMREAMPSTLSFDDFLAACQRPLRRSIRVNTLKISVADFLQLTAPYGWTLTPIPWCEEGFWIERDNEDALPLGSTAEHLSGLFYIQEASSMLPVAALFADGNAPQRVMDVAAAPGSKTTQISARMNNEGAILANEFSASRVKVLHANISRCGISNVALTHFDGRVFGAAVPEMFDAILLDAPCSGEGVVRKDPDALKNWSPESNQEIAATQRELIDSAFHALRPGGTLVYSTCTLNQEENEAVCLWLKETYPDAVEFLPLGDLFPGANKALTEEGFLHVFPQIYDCEGFFVARLRKTQAIPALPAPKYKVGNFPFSPVKDREAGQIRQAATGVGLNWDENLRLWQRDKELWLFPVGIEALIGKVRFSRLGIKLAETHNKGYRWQHEAVIALASPDNMNAFELTPQEAEEWYRGRDVYPQAAPVADDVLVTFQHQPIGLAKRIGSRLKNSYPRELVRDGKLFTGNA	not failed
MAQINFEGLRELHDCVNYLLHHCPKTRESLSQQGQEKWTEQVSEASLRMLDICNVSKDVMTLVKHSLQDLQLTLRGNESSDVNEKIAAYNRYKNKLKKETLKCLNCLKNMKGNEGRVAMPIEQNLLFVTEVLKEVRRVVVTMVESLFSLGCIPWLEKRSSKGSLSSIFSIRSSYLLDDEWDETAVQSATTRLEAAEITVVELEIELESIFRRLIQTRVSLLNILTN	failed
